This note sets out measurements from paper PMC7961094, “Development of a colorimetric α-ketoglutarate detection assay for prolyl hydroxylase domain (PHD) proteins” (The Journal of Biological Chemistry, 2021).

As a reminder, the Km is the substrate concentration at which the rate is half of its maximum. One may read the kcat as the maximal rate divided by the concentration of active sites. Usually kcat/Km stands for the turnover number divided by the Michaelis constant.

Values joined by “and” are separate entries in the source; they are usually repeats but may differ in a detail not shown here. Equal entries are not always repeated.

Data set [1] deals with MBP-HA-PHD3 (full-length human prolyl hydroxylase domain protein 3) (human) (UniProt Q9H6Z9).
Data set [2] has the same target. The source holds these as a separate data set.
Substrate in data set [3]: O=C(O)CCC(=O)C(=O)O
Put plainly: purified protein, by the assay type. Particulars: pH 7.0, 37.0 °C.

Substrate in data set [4]: CC[C@H](C)[C@H](NC(=O)[C@H](Cc1ccc(O)cc1)NC(=O)[C@@H]1CCCN1C(=O)[C@H](C)NC(=O)[C@H](CC(C)C)NC(=O)[C@H](CCSC)NC(=O)[C@H](CCC(=O)O)NC(=O)[C@H](CC(C)C)NC(=O)[C@H](CC(=O)O)NC(=O)[C@H](CC(C)C)NC(=O)[C@@H](N)CC(=O)O)C(=O)N1CCC[C@H]1C(=O)N[C@@H](CCSC)C(=O)N[C@@H](CC(=O)O)C(=O)N[C@@H](CC(=O)O)C(=O)N[C@@H](CC(=O)O)C(=O)N[C@@H](Cc1ccccc1)C(=O)N[C@@H](CCC(N)=O)C(=O)N[C@@H](CC(C)C)C(=O)O
The experiment in a line: purified protein, by the assay type. The following applies: pH 7.0, 37.0 °C.

The mark [5] stands for this setting: other: PHD3, HIF-1α CODD substrate, This work (Table 2).

For ERIGFPLMIKASEGGGGK [synthetic ACC2 peptide encompassing the P450 residue], the Km of PHD3 for the ACC2 P450 peptide, initial rates of α-ketoglutarate consumption in the 2,4-DNPH α-KG assay (10 μM PHD3) in data set [1] was 41.2 µM.

For the molecule DLDLEMLAPYIPMDDDFQL [synthetic HIF-1α peptide encompassing the P564 residue (HIF-1α CODD, 19-mer)], the Km (app; substrate) of PHD3 for the HIF-1α peptide, initial rates of α-ketoglutarate consumption in the 2,4-DNPH α-KG assay (10 μM PHD3, 37 °C, pH 7.0) in data set [2] turned out to be 0.024 mM.

B1: PHD2_181-426 (Homo sapiens) (protein)
chain: PNGQTKPLPALKLALEYIVPCMNKHGICVVDDFLGKETGQQIGDEVRALHDTGKFTDGQLVSQKSDSSKDIRGDKITWIEGKEPGCETIGLLMSSMDDLIRHCNGKLGSYKINGRTKAMVACYPGNGTGYVRHVDNPNGDGRCVTCIYYLNKDWDAKVSGGILRIFPEGKAQFADIEPKFDRLLFFWSDRRNPHEVQPAYATRYAITVWYFDADERARAKVKYLTGEKGVRVELNKPSDSVGKDVF
B1: the Km in data set [3] (other: increasing α-ketoglutarate, 100 μM peptide substrate, 3 μM PHD2) is 12.0 ± 3.0 µM and 11.970 ± 3.006 µM; in data set [4] (other: increasing HIF-1α peptide (P564), saturating concentrations of all other reagents, 3 μM PHD2) it was 5.2 ± 0.9 µM and 5.192 ± 0.940 µM.

B2: PHD3 (Homo sapiens) (protein)
chain: MPLGHIMRLDLEKIALEYIVPCLHEVGFCYLDNFLGEVVGDCVLERVKQLHCTGALRDGQLAGPRAGVSKRHLRGDQITWIGGNEEGCEAISFLLSLIDRLVLYCGSRLGKYYVKERSKAMVACYPGNGTGYVRHVDNPNGDGRCITCIYYLNKNWDAKLHGGILRIFPEGKSFIADVEPIFDRLLFFWSDRRNPHEVQPSYATRYAMTVWYFDAEERAEAKKKFRNLTRKTESALTED
B2: the Km in data set [3] (setting [5]) was determined as 43.29 ± 7.295 µM; in data set [3] (other: increasing α-ketoglutarate, 100 μM peptide substrate, 10 μM PHD3), 43.3 ± 7.3 µM; in data set [4] (setting [5]), 24.03 ± 5.964 µM; in data set [4] (other: increasing HIF-1α peptide (P564), saturating concentrations of all other reagents, PHD3), 24.0 ± 6.0 µM. Besides, in data set [4] (setting [5]), the kcat was 0.06062 ± 0.00278 s⁻¹. Besides, the kcat/Km in data set [4] (setting [5]) was determined as 2523 ± 466 M⁻¹ s⁻¹.
